Like-named read-outs stand apart in the source and are kept apart here.
T1: CynoCD40-His protein (Acro, Cat. No.: CD0-C52H6) (cynomolgus monkey, UniProt P25942 21-193 (human entry))
T1 construct: Bought protein; also called cynomolgus monkey CD40 antigen; not shown: His tag
T1 chain: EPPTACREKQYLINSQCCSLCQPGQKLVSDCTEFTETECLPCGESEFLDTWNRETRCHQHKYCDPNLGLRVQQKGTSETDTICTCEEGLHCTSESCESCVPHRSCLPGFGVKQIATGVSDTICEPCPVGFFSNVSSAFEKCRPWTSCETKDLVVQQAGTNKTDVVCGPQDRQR


How the values were obtained:
[1] = target: T2, human CD40 (hCD40), full length, on cells (human, UniProt P25942 21-277); experiment: cell-based or functional assay
hCD40-mFc = target: T3, hCD40-mFc (human); experiment: flow cytometry, blocking of hCD40-mFc (2 µg/mL) binding to CHO-K1-hCD40L cells
T3 construct: Prepared in-house in CHO cells; also called human CD40 recombinant protein containing a mouse antibody heavy chain Fc; Human CD40-mFc
Experimental: A CHO-K1-hCD40L cell suspension and a CHO-K1-CynoCD40L cell suspension at a cell concentration of 3×10⁵ cells/mL were separately added into a 96-well U-bottom plate at 100 μL/well. An hCD40-mFc protein at a final concentration of 2 μg/mL (prepared in-house, SEQ ID NO: 64) or a cynoCD40-mFc protein at a final concentration of 2 μg/mL (prepared in-house, SEQ ID NO: 65) was added correspondingly, before serially 2-fold diluted anti-CD40 antibodies in a final concentration range of 312.5 ng/ml-40000 ng/ml were added. The mixture was mixed well, and then incubated at 4° C. for 1 h. The cells were washed with PBS containing 2% of FBS, and then a PE-conjugated goat anti-mouse IgG (H+L) antibody (Abcam, Cat. No.: ab97041) diluted at a volume ratio of 1:500 was added, and the mixture was incubated at 4° C. for 0.5 h. The cells were washed with PBS containing 2% of […], and then resuspended in PBS containing 2% of FBS. The fluorescence signals were detected on a flow cytometer (Sartorius IQue3). The activity of anti-CD40 antibodies to block the binding of CHO-K1-hCD40L cells to an hCD40-mFc protein and CHO-K1-cynoCD40L cells to a cynoCD40-mFc protein was analyzed by the mean fluorescence intensity (MFI) of staining, and the IC₅₀ value was calculated by GraphPad Prism software.

[2] = target: T1, CynoCD40-His protein (Acro, Cat. No.: …); experiment: BLI (Fortebio Octet RED96e), antibody captured on AHC sensor, antigen 1.56-100 nM, 1:1 model
Experimental: (§1) The affinity of humanized anti-CD40 antibodies to an hCD40-His protein (Acro, Cat. No.: CD0-H5228) and a CynoCD40-His protein (Acro, Cat. No.: CD0-C52H6) was detected by a ForteBio molecular interaction system. Firstly, an AHC biosensor (Fortebio, Cat. No.: 18-5060) was activated, and then immersed in an anti-CD40 antibody solution at a final concentration of 5 μg/mL to capture the antibodies. Serially 2-fold diluted hCD40-His protein and CynoCD40-His protein in a final concentration range of 1.56 nM-100 nM were then […] the AHC biosensor. The response signals were detected in real time on a Fortebio molecular interaction system (Fortebio Octet RED96e) to give association and dissociation curves. After the completion of dissociation in each cycle, the AHC biosensor was regenerated for the next capture; the procedure was repeated until the affinity of the different antibodies for CD40 was determined. The resulting data were analyzed by Fortebio Data Analysis 11.0 software using a 1:1 (Langmuir) binding model to determine the Kₐ (Kₒₙ) and Kd (Kdis) values, and the dissociation constant KD was calculated by KD=Kd/Kₐ. See www.fortebio.com for more detailed detection procedures and related information.

[3] = target: T4, hCD40-His protein (Acro, Cat. No.: CD0-H5228) (human, UniProt P25942 21-193); experiment: as above
T4 construct: Bought protein; also called human CD40 antigen; not shown: His tag
Experimental: as §1

[4] = target: T2, human CD40 (hCD40), full length, on …; experiment: flow cytometry (MFI) on CHO-K1-hCD40 cells, PE anti-human IgG detection
[5] = target: T2, human CD40 (hCD40), full length, on …; experiment: cell-based or functional assay; remark: listed apart in the source
[6] = target: T2, human CD40 (hCD40), full length, on …; experiment: cell-based or functional assay; remark: listed apart in the source
[7] = target: T2, human CD40 (hCD40), full length, on …; experiment: cell-based or functional assay; remark: listed apart in the source
[8] = target: T2, human CD40 (hCD40), full length, on …; experiment: flow cytometry (MFI) on 293T-hCD40-NFκB cells, PE anti-human IgG detection

Row | IC50 (read off the curve); NF-κB luciferase reporter (RLU), 293T-hCD40-NFκB cells co-cultured 1:1 with CHO-K1-hCD40L cells [1] [ng/mL] | IC50 (hCD40-mFc) [nM] | Kd [2] [nM] | koff [2] [s⁻¹] | kon [2] [M⁻¹ s⁻¹] | Kd [3] [nM] | koff [3] [s⁻¹] | kon [3] [M⁻¹ s⁻¹] | EC50 [4] [nM] | IC50, inhibition of Ramos cell apoptosis induced by CD40L and IL-4 [6] [nM] | Inhibition, % of Ramos cell apoptosis at 0.064 ng/L (so in the source) [6] [%] | Inhibition, % of Ramos cell apoptosis at 0.32 ng/L (so in the source) [6] [%] | Inhibition, % of Ramos cell apoptosis at 1.6 ng/L (so in the source) [6] [%] | Inhibition, % of Ramos cell apoptosis at 8 ng/L (so in the source) [6] [%] | Inhibition, % of Ramos cell apoptosis at 40 ng/L (so in the source) [6] [%] | Inhibition, % of Ramos cell apoptosis at 200 ng/L (so in the source) [6] [%] | Inhibition, % of Ramos cell apoptosis at 1000 ng/L (so in the source) [6] [%] | IC50, inhibition of Ramos cell apoptosis induced by CD40L and IL-4 [7] [nM] | Inhibition, % of Ramos cell apoptosis at 0.0128 ng/mL [7] [%] | Inhibition, % of Ramos cell apoptosis at 0.064 ng/mL [7] [%] | Binder | other results
1 | ~8 | 20.6 | 0.0559 | 4.3e-05 | 769000 | 0.118 | 5.61e-05 | 474000 | 0.36 | 0.0183 | 4 | 12 | 41 | 85 | 97 | 99 | 98 | 0.0247 | -26 | -24 | Iscalimab (CFZ533) (antibody, human IgG1, kappa, N297A, V domains shown, also called BM; benchmark) VH: QVQLVESGGGVVQPGRSLRLSCAASGFTFSSYGMHWVRQAPGKGLEWVAVISYEESNRYHADSVKGRFTISRDNSKITLYLQMNSLRTEDTAVYYCARDGGIAAPGPDYWGQGTLVTVSS VL: DIVMTQSPLSLTVTPGEPASISCRSSQSLLYSNGYNYLDWYLQKPGQSPQVLISLGSNRASGVPDRFSGSGSGTDFTLKISRVEAEDVGVYYCMQARQTPFTFGPGTKVDIRR | MFI value (CD95 on Ramos cells), Fc crosslinking with anti-human IgG Fcγ antibody, 1 µg/mL antibody [5]: 12500 MFI; MFI value (CD95 on Ramos cells), Fc crosslinking with anti-human IgG Fcγ antibody, 10 µg/mL antibody [5]: 12100 MFI; Inhibition, % of Ramos cell apoptosis at 0.32 ng/mL [7]: -10%; Inhibition, % of Ramos cell apoptosis at 1.6 ng/mL [7]: 5%; Inhibition, % of Ramos cell apoptosis at 8 ng/mL [7]: 72%; Inhibition, % of Ramos cell apoptosis at 40 ng/mL [7]: 98%; Inhibition, % of Ramos cell apoptosis at 200 ng/mL [7]: 100%; Inhibition, % of Ramos cell apoptosis at 1000 ng/mL [7]: 101%; EC50 (read off the curve) [8]: ~10 ng/mL
2 | ~0.6 | 21.3 | 0.162 | 0.000276 | 1.7e+06 | 0.153 | 0.000283 | 1.85e+06 | 0.43 | 0.00508 | 0 | 17 | 82 | 96 | 95 | 96 | 95 | 0.00413 | 11 | 10 | Chi-A01 (antibody, human IgG4 S228P, kappa, V domains shown, also called chimeric A01) VH: QVQLKESGPGLVAPSQSLSITCTVSGFSLPTSGVHWVRQPPGKGLEWLGVIWAGGDTNYNSALMSRLSISKDNSKSQVFLKMNSLQKDDTAIYYCLGHGHFDVWGAGTTVTVSS VL: DVVMTQTPLSLPVSLGDQASISCRSSQSLVHSSGNTYLQWYLQKPGQSPGLLIYKVSNRFSGVPDRFSGSGSGTDFTLKISRVEAEDLGVYFCSQTTHVPWTFGGGTKLEIKR | Inhibition, % of Ramos cell apoptosis at 0.32 ng/mL [7]: 39%; Inhibition, % of Ramos cell apoptosis at 1.6 ng/mL [7]: 79%; Inhibition, % of Ramos cell apoptosis at 8 ng/mL [7]: 101%; Inhibition, % of Ramos cell apoptosis at 40 ng/mL [7]: 99%; Inhibition, % of Ramos cell apoptosis at 200 ng/mL [7]: 101%; Inhibition, % of Ramos cell apoptosis at 1000 ng/mL [7]: 100%; EC50 (read off the curve) [8]: ~2 ng/mL

Reference: US20240383994A1 (CHIA TAI TIANQING PHARMACEUTICAL GROUP, published 2024)
